Results taken from patent JP2005330292A (dated 2005).
Positions count from the first letter of the chain named.

B1: H鎖キメラ/L鎖ヒト型化バージョンb抗体 (antibody, V domains shown)
VH: EVQLQQSGTNLVRPGALVKLSCKGSGFNIKDYYMHWVKQRPEQGLEWIGGNDPANGHSMYDPKFQGKASITADTSSNTAYLQLSSLTSEDTAVYFCARDSGYAMDYWGQGTSVTVSS
VL: DIQMTQSPSSLSASVGDRVTITCKASQDIKSFLSWYQQKPGKAPKLLIYYATSLADGVPSRFSGSGSGTDYTLTISSLQPEDFATYYCLQHGESPYTFGGGTKVEIK
notes: Human IgG4 kappa (vector N5KG4P); also called ch-b
B2: H鎖ヒト型化バージョンb/L鎖ヒト型化バージョンb抗体 (antibody, V domains shown)
VH: QVQLLESGAVLARPGTSVKISCKASGFNIKDYYMHWVKQRPGQGLEWIGGNDPANGHSMYDPKFQGRVTITADTSTNTAYMELSSLRSEDTAIYYCARDSGYAMDYWGQGTLVTVSS
VL: B1 VL
notes: Human IgG4 kappa (vector N5KG4P); also called b-b; bb
B3: H鎖ヒト型化バージョンi/L鎖ヒト型化バージョンb抗体 (antibody, V domains shown)
VH: B2 VH with N77S, A79V, Y80F, I93V
VL: B1 VL
notes: Human IgG4 kappa (vector N5KG4P); also called i-b; ib
B4: H鎖キメラ/L鎖ヒト型化バージョンc抗体 (antibody, V domains shown)
VH: B1 VH
VL: B1 VL with F83I
notes: Human IgG4 kappa (vector N5KG4P); also called ch-c
B5: H鎖ヒト型化バージョンb/L鎖ヒト型化バージョンb2抗体 (antibody, V domains shown)
VH: B2 VH
VL: B1 VL with G41E, L46S
notes: Human IgG4 kappa (vector N5KG4P); also called b-b2
B6: H鎖ヒト型化バージョンi/L鎖ヒト型化バージョンb2抗体 (antibody, V domains shown)
VH: QVQLLESGAVLARPGTSVKISCKASGFNIKDYYMHWVKQRPGQGLEWIGGNDPANGHSMYDPKFQGRVTITADTSTSTVFMELSSLRSEDTAVYYCARDSGYAMDYWGQGTLVTVSSAS
VL: B1 VL with G41E, L46S
notes: Human IgG4 kappa (vector N5KG4P); also called i-b2; ib2
B7: H鎖ヒト型化バージョンb3/L鎖ヒト型化バージョンb抗体 (antibody, V domains shown)
VH: B2 VH with K38R, R40A
VL: B1 VL
notes: Human IgG4 kappa (vector N5KG4P); also called b3-b
B8: H鎖キメラ/L鎖ヒト型化バージョンb2抗体 (antibody, V domains shown)
VH: B1 VH
VL: B1 VL with G41E, L46S
notes: Human IgG4 kappa (vector N5KG4P); also called ch-b2
B9: H鎖ヒト型化バージョンd/L鎖ヒト型化バージョンb抗体 (antibody, V domains shown)
VH: B2 VH with T74E, N77S, T91S, I93V, Y95F
VL: B1 VL
notes: Human IgG4 kappa (vector N5KG4P); also called d-b
B10: H鎖ヒト型化バージョンi/L鎖ヒト型化バージョンb1抗体 (antibody, V domains shown)
VH: B2 VH with N77S, A79V, Y80F, I93V
VL: B1 VL with Y36F, A43S, L46T
notes: Human IgG4 kappa (vector N5KG4P); also called i-b1
B11: H鎖ヒト型化バージョンj/L鎖ヒト型化バージョンb抗体 (antibody, V domains shown)
VH: B2 VH with I70F, T76A, S84R, E89A, I93V
VL: B1 VL
notes: Human IgG4 kappa (vector N5KG4P); also called j-b
B12: H鎖キメラ/L鎖ヒト型化バージョンb1抗体 (antibody, V domains shown)
VH: B1 VH
VL: B1 VL with Y36F, A43S, L46T
notes: Human IgG4 kappa (vector N5KG4P); also called ch-b1
B13: H鎖ヒト型化バージョンd3/L鎖ヒト型化バージョンb抗体 (antibody, V domains shown)
VH: B2 VH with K38R, R40A, T74E, N77S, T91S, I93V, Y95F
VL: B1 VL
notes: Human IgG4 kappa (vector N5KG4P); also called d3-b
B14: H鎖ヒト型化バージョンg/L鎖ヒト型化バージョンb抗体 (antibody, V domains shown)
VH: B2 VH with R67K, V68A, I70L, T74E, T76S, N77S, E82Q, T91S, I93V, Y95S
VL: B1 VL
notes: Human IgG4 kappa (vector N5KG4P); also called g-b
B15: H鎖ヒト型化バージョンb/L鎖ヒト型化バージョンc抗体 (antibody, V domains shown)
VH: B2 VH
VL: B1 VL with F83I
notes: the construction of its expression plasmid is not described; also called b-c
B16: H鎖キメラ/L鎖ヒト型化バージョンa抗体 (antibody, V domains shown)
VH: B1 VH
VL: B1 VL with Y71F
notes: Human IgG4 kappa (vector N5KG4P); also called ch-a
B17: H鎖ヒト型化バージョンb/L鎖ヒト型化バージョンa抗体 (antibody, V domains shown)
VH: B2 VH
VL: B1 VL with Y71F
notes: Human IgG4 kappa (vector N5KG4P); also called b-a
B18: H鎖ヒト型化バージョンa/L鎖キメラ抗体 (antibody, V domains shown)
VH: QVQLLESGAVLARPGTSVKISCKASGFNIKDYYMHWVKQRPGQGLEWIGGNDPANGHSMYDPKFQGRAKLTAATSASIAYLEFSSLTNEDSAVYYCARDSGYAMDYWGQGTLVTVSS
VL: DIKMTQSPSSMYASLGERVTITCKASQDIKSFLSWYQQKPWKSPKTLIYYATSLADGVPSRFSGSGSGQDYSLTINNLESDDTATYYCLQHGESPYTFGGGTKLEIK
notes: Human IgG4 kappa (vector N5KG4P); also called a-ch
B19: H鎖ヒト型化バージョンa/L鎖ヒト型化バージョンa抗体 (antibody, V domains shown)
VH: B18 VH
VL: B1 VL with Y71F
notes: Human IgG4 kappa (vector N5KG4P); also called a-a
B20: H鎖ヒト型化バージョンc/L鎖キメラ抗体 (antibody, V domains shown)
VH: QVQLLESGAVLARPGTSVKISCKASGFNIKDYYMHWVKQRPGQGLEWIGGNDPANGHSMYDPKFQGRVTMLVDTSKNQFSLRLSSVTAADTAVYYCARDSGYAMDYWGQGTLVTVSS
VL: B18 VL
notes: Human IgG4 kappa (vector N5KG4P); also called c-ch
B21: H鎖ヒト型化バージョンb/L鎖キメラ抗体 (antibody, V domains shown)
VH: B2 VH
VL: B18 VL
notes: Human IgG4 kappa (vector N5KG4P); also called b-ch
B22: H鎖キメラ/L鎖キメラ抗体(キメラATR-5抗体) (antibody, V domains shown)
VH: B1 VH
VL: B18 VL
notes: Mouse ATR-5 V regions joined to human C regions; Both an IgG1 (N5KG1(V)) and an IgG4 (N5KG4P) kappa vector were built; also called ch-ch; chATR-5
B23: H鎖ヒト型化バージョンj/L鎖キメラ抗体 (antibody, V domains shown)
VH: B2 VH with I70F, T76A, S84R, E89A, I93V
VL: B18 VL
notes: Human IgG4 kappa (vector N5KG4P); also called j-ch
B24: H鎖ヒト型化バージョンe/L鎖キメラ抗体 (antibody, V domains shown)
VH: B2 VH with T69S, T74E, N77K, T78I, S84N, I93V, Y95F
VL: B18 VL
notes: Human IgG4 kappa (vector N5KG4P); also called e-ch
B25: H鎖ヒト型化バージョンi/L鎖キメラ抗体 (antibody, V domains shown)
VH: B2 VH with N77S, A79V, Y80F, I93V
VL: B18 VL
notes: Human IgG4 kappa (vector N5KG4P); also called i-ch
B26: H鎖ヒト型化バージョンd/L鎖キメラ抗体 (antibody, V domains shown)
VH: B2 VH with T74E, N77S, T91S, I93V, Y95F
VL: B18 VL
notes: Human IgG4 kappa (vector N5KG4P); also called d-ch

Columns and labels:
[1] = biological target: T1, ヒト組織因子(TF)(ヒト膀胱癌細胞J82上に発現) (human, UniProt P13726 33-295); test: cell ELISA on fixed J82 cells
T1 construct: whole, on cells; Target of the cell ELISA; also called ヒトTF; 抗原

[2] = biological target: T2, 可溶型ヒトTF(アミノ酸配列1-219のC末端にFLAGペプチドを連結、CHO細胞発現) (human, UniProt P13726 33-251); test: dot blot of shTF on nitrocellulose: native, 8 M urea-denatured, and 8 M urea + 5 mM DTT
T2 construct: also called shTF; 可溶型TF

[3] = biological target: T1, ヒト組織因子(TF)(ヒト膀胱癌細胞J82上に発現); test: cell ELISA on fixed J82 cells; chimeric antibody as the reference

Binder | binding result [1] | binding result [2] | binding result [3]
B1 | binds | – | –
B2 | binds | binds | –
B3 | binds | binds | –
B4 | binds | – | –
B5 | binds | – | –
B6 | binds | binds | –
B7 | binds | – | –
B8 | binds | – | –
B9 | binds | – | –
B10 | binds | – | –
B11 | binds | – | –
B12 | binds | – | –
B13 | binds | – | –
B14 | binds | – | –
B15 | binds | – | –
B16 | binds | – | –
B17 | binds | – | –
B18 | binds | – | –
B19 | binds | – | –
B20 | binds | – | –
B21 | binds | – | –
B22 | – | binds | binds
B23 | binds | – | –
B24 | binds | – | –
B25 | binds | – | –
B26 | binds | – | –
